Results published in article PMC7573591 (Nature Communications, 2020).

Legend:
purified protein [1] = substrate: CC(C)=CCC/C(C)=C/CC/C(C)=C/CO[P@@](=O)(O)OP(=O)(O)O; assay: purified protein; format: biochemical, Homo sapiens; settings: 100 μM IPP, 0.5 mM MgCl2, pH 7.5, 30 °C, 0.02% Triton X-100
purified protein [2] = substrate: C=C(C)CCO[P@@](=O)(O)OP(=O)(O)O; assay: purified protein; settings: 10 μM FPP, 0.5 mM MgCl2, pH 7.5, 30 °C, 0.02% Triton X-100, labelled compound
[3] = target: the molecule itself; assay: cross-linking; about 8 µM purified shcis-PT with 0.005% glutaraldehyde, room temperature, 15 min; products analysed by SDS-PAGE

B1: shcis-PT (soluble human cis-prenyltransferase complex, DHDDS-sNgBR) (Homo sapiens) (protein)
chain 1: MSWIKEGELSLWERFCANIIKAGPMPKHIAFIMDGNRRYAKKCQVERQEGHSQGFNKLAETLRWCLNLGILEVTVYAFSIENFKRSKSEVDGLMDLARQKFSRLMEEKEKLQKHGVCIRVLGDLHLLPLDLQELIAQAVQATKNYNKCFLNVCFAYTSRHEISNAVREMAWGVEQGLLDPSDISESLLDKCLYTNRSPHPDILIRTSGEVRLSDFLLWQTSHSCLVFQPVLWPEYTFWNLFEAILQFQMNHSVLQKARDMYAEERKRQQLERDQATVTEQLLREGLQASGDAQLRRTRLHKLSARREERVQGFLQALELKRADWLARLGTASA
chain 2: RGGSCLAAAHHRMRWRADGRSLEKLPVHMGLVITEVEQEPSFSDIASLVVWCMAVGISYISVYDHQGIFKRNNSRLMDEILKQQQELLGLDCSKYSPEFANSNDKDDQVLNCHLAVKVLSPEDGKADIVRAAQDFCQLVAQKQKRPTDLDVDTLASLLSSNGCPDPDLVLKFGPVDSTLGFLPWHIRLTEIVSLPSHLNISYEDFFSALRQYAACEQRLGK
notes: full-length DHDDS 1-333 plus cytosolic NgBR 73-293 (no transmembrane domain); co-expressed in E. coli; TRX fusions, His- and Strep-tags cut by TEV
Km (purified protein [1]): 0.11 ± 0.01 µM
kcat (purified protein [1]): 0.74 ± 0.02 s⁻¹
Km (purified protein [2]): 6.23 ± 1.50 µM
kcat (purified protein [2]): 0.74 ± 0.02 s⁻¹

B2: dehydrodolichyl diphosphate synthase (DHDDS), full-length human, residues 1-333 (enzyme, UniProt Q86SQ9 1-333, looked up)
chain: B1 chain 1
notes: human dehydrodolichyl diphosphate synthase (DHDDS), full length, residues 1-333, UniProt Q86SQ9; Cloned into pET-32b as a TRX fusion with a TEV site; tags and TRX removed by TEV protease before the final size-exclusion step; also called DHDD synthase; catalytic subunit of hcis-PT / shcis-PT / xcis-PT
binding result [3]: binds
